Results on 1 substance are retold here after publication doi:10.1101/2024.11.06.622200.

The target in this assay is purified recombinant myristoylated HIV-1 matrix protein (myrMA) (HIV-1 NL4-3).

In the case of “HIV-1 spacer peptide 2 (SP2), added in vitro”, the share of sub-images contributing to mature-like MA lattice classes on lipid monolayers, with SP2 (7% mature-like and 7% immature-like without SP2) came to 47%.
